T1: recombinant Factor VIII (CSL627, rVIII-SingleChain) (Homo sapiens (Human), UniProt P00451 20-2351)
T1 construct: also called FVIII
T1 sequence: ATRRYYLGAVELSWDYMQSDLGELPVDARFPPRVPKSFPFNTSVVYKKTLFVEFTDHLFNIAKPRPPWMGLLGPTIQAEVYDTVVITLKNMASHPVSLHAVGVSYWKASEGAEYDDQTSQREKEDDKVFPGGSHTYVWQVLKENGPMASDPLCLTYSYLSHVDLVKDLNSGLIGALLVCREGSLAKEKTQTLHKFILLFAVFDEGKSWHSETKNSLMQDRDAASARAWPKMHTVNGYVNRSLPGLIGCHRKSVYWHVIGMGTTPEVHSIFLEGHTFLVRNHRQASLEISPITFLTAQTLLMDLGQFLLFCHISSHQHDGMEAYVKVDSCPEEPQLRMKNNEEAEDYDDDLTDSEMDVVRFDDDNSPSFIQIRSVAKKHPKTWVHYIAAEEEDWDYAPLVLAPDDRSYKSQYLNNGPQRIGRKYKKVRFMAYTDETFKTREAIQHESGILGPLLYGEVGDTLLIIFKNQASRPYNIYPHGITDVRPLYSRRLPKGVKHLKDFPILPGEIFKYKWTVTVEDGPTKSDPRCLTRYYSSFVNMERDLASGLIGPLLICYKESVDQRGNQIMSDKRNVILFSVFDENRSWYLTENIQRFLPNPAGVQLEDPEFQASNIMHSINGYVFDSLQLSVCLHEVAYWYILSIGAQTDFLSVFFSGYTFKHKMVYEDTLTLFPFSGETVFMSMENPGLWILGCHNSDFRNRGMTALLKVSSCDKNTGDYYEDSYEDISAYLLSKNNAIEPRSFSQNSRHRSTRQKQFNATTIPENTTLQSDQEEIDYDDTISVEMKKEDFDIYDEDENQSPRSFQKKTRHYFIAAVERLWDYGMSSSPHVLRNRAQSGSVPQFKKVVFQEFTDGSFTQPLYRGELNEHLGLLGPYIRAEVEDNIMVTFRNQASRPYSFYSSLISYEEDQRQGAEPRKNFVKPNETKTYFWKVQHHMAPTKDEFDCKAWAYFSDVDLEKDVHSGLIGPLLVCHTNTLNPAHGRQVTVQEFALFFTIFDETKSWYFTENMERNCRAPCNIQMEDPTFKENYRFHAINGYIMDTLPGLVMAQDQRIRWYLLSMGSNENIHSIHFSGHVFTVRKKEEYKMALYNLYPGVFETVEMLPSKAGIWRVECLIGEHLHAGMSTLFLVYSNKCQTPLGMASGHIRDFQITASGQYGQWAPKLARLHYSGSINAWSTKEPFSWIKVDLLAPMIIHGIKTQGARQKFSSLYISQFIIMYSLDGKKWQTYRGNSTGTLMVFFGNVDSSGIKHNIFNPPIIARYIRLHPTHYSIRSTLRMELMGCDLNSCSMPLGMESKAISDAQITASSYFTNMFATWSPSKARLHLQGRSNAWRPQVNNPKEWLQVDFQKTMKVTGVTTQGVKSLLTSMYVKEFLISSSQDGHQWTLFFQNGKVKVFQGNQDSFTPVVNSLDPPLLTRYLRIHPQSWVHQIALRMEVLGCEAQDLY


molecular target: T1, recombinant Factor VIII (CSL627, …); test: SPR, anti-His capture
Method in brief: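 Capture 40-150 RU mutant from medium on anti-His (14,000 RU) CM-5; 1 nM FVIII, 5 min on / 5 min off; reference spot + blank subtracted; 1:1 fit.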

Row | Kd | koff | kon | Binder
1 | 180 pM | 0.00404 s⁻¹ | 2.24e+07 M⁻¹ s⁻¹ | Hu-vWF[764-1270]-8His S766Y-K773Y (other) SLYCRPPMVYLVCPADNLRAEGLECTKTCQNYDLECMSMGCVSGCLCPPGMVRHENRCVALERCPCFHQGKEYAPGETVKIGCNTCVCRDRKWNCTDHVCDATCSTIGMAHYLTFDGLKYLFPGECQYVLVQDYCGSNPGTFRILVGNKGCSHPSVKCKKRVTILVEGGEIELFDGEVNVKRPMKDETHFEVVESGRYIILLLGKALSVVWDRHLSISVVLKQTYQEKVCGLCGNFDGIQNNDLTSSNLQVEEDPVDFGNSWKVSSQCADTRKVPLDSSPATCHNNIMKQTMVDSSCRILTSDVFQDCNKLVDPEPYLDVCIYDTCSCESIGDCACFCDTIAAYAHVCAQHGKVVTWRTATLCPQSCEERNLRENGYECEWRYNSCAPACQVTCQHPEPLACPVQCVEGCHAHCPPGKILDELLQTCVDPEDCPVCEVAGRRFASGKKVTLNPSDPEHCQICHCDVVNLTCEACQEPGGLVVPPTDAPVSPTTLYVEDISEPPLHDFHHHHHHHH
2 | 134 pM | 0.00393 s⁻¹ | 2.93e+07 M⁻¹ s⁻¹ | Hu-vWF[764-1270]-8His S766Y-K773W (other) SLYCRPPMVWLVCPADNLRAEGLECTKTCQNYDLECMSMGCVSGCLCPPGMVRHENRCVALERCPCFHQGKEYAPGETVKIGCNTCVCRDRKWNCTDHVCDATCSTIGMAHYLTFDGLKYLFPGECQYVLVQDYCGSNPGTFRILVGNKGCSHPSVKCKKRVTILVEGGEIELFDGEVNVKRPMKDETHFEVVESGRYIILLLGKALSVVWDRHLSISVVLKQTYQEKVCGLCGNFDGIQNNDLTSSNLQVEEDPVDFGNSWKVSSQCADTRKVPLDSSPATCHNNIMKQTMVDSSCRILTSDVFQDCNKLVDPEPYLDVCIYDTCSCESIGDCACFCDTIAAYAHVCAQHGKVVTWRTATLCPQSCEERNLRENGYECEWRYNSCAPACQVTCQHPEPLACPVQCVEGCHAHCPPGKILDELLQTCVDPEDCPVCEVAGRRFASGKKVTLNPSDPEHCQICHCDVVNLTCEACQEPGGLVVPPTDAPVSPTTLYVEDISEPPLHDFHHHHHHHH

molecular target: T1, recombinant Factor VIII (CSL627, …); test: SPR, anti-His capture; remark: another data set of the same source
Procedure: Binding kinetics were investigated by surface plasmon resonance using a Biacore 4000 biosensor at 37° C. Each mutant was captured from cell culture medium to a density of 40-150 RU on a CM-5 sensor chip pre-immobilised with anti-His antibody (14,000 RU). In an initial screening study, FVIII was injected over the captured mutants for 5 minutes at 1 nM and dissociation monitored for 5 minutes.
All sensorgrams were double referenced by subtraction of signals from a reference spot (containing only immobilised anti His antibody) and from a blank injection. Binding kinetics were determined by fitting the double referenced sensorgrams to a 1:1 kinetic model.

Row | Kd | koff | kon | Binder
3 | 2.42 pM | 7.21e-05 s⁻¹ | 2.98e+07 M⁻¹ s⁻¹ | Hu-vWF[764-1270]-8His S764A/S766Y (other) ALYCRPPMVKLVCPADNLRAEGLECTKTCQNYDLECMSMGCVSGCLCPPGMVRHENRCVALERCPCFHQGKEYAPGETVKIGCNTCVCRDRKWNCTDHVCDATCSTIGMAHYLTFDGLKYLFPGECQYVLVQDYCGSNPGTFRILVGNKGCSHPSVKCKKRVTILVEGGEIELFDGEVNVKRPMKDETHFEVVESGRYIILLLGKALSVVWDRHLSISVVLKQTYQEKVCGLCGNFDGIQNNDLTSSNLQVEEDPVDFGNSWKVSSQCADTRKVPLDSSPATCHNNIMKQTMVDSSCRILTSDVFQDCNKLVDPEPYLDVCIYDTCSCESIGDCACFCDTIAAYAHVCAQHGKVVTWRTATLCPQSCEERNLRENGYECEWRYNSCAPACQVTCQHPEPLACPVQCVEGCHAHCPPGKILDELLQTCVDPEDCPVCEVAGRRFASGKKVTLNPSDPEHCQICHCDVVNLTCEACQEPGGLVVPPTDAPVSPTTLYVEDISEPPLHDFHHHHHHHH
4 | 1.96 pM | 2.69e-05 s⁻¹ | 1.37e+07 M⁻¹ s⁻¹ | Hu-vWF[764-1270]-8His S764G/S766Y (other) GLYCRPPMVKLVCPADNLRAEGLECTKTCQNYDLECMSMGCVSGCLCPPGMVRHENRCVALERCPCFHQGKEYAPGETVKIGCNTCVCRDRKWNCTDHVCDATCSTIGMAHYLTFDGLKYLFPGECQYVLVQDYCGSNPGTFRILVGNKGCSHPSVKCKKRVTILVEGGEIELFDGEVNVKRPMKDETHFEVVESGRYIILLLGKALSVVWDRHLSISVVLKQTYQEKVCGLCGNFDGIQNNDLTSSNLQVEEDPVDFGNSWKVSSQCADTRKVPLDSSPATCHNNIMKQTMVDSSCRILTSDVFQDCNKLVDPEPYLDVCIYDTCSCESIGDCACFCDTIAAYAHVCAQHGKVVTWRTATLCPQSCEERNLRENGYECEWRYNSCAPACQVTCQHPEPLACPVQCVEGCHAHCPPGKILDELLQTCVDPEDCPVCEVAGRRFASGKKVTLNPSDPEHCQICHCDVVNLTCEACQEPGGLVVPPTDAPVSPTTLYVEDISEPPLHDFHHHHHHHH
5 | 3.87 pM | 7.64e-05 s⁻¹ | 1.97e+07 M⁻¹ s⁻¹ | Hu-vWF[764-1270]-8His S764E/S766Y (other) ELYCRPPMVKLVCPADNLRAEGLECTKTCQNYDLECMSMGCVSGCLCPPGMVRHENRCVALERCPCFHQGKEYAPGETVKIGCNTCVCRDRKWNCTDHVCDATCSTIGMAHYLTFDGLKYLFPGECQYVLVQDYCGSNPGTFRILVGNKGCSHPSVKCKKRVTILVEGGEIELFDGEVNVKRPMKDETHFEVVESGRYIILLLGKALSVVWDRHLSISVVLKQTYQEKVCGLCGNFDGIQNNDLTSSNLQVEEDPVDFGNSWKVSSQCADTRKVPLDSSPATCHNNIMKQTMVDSSCRILTSDVFQDCNKLVDPEPYLDVCIYDTCSCESIGDCACFCDTIAAYAHVCAQHGKVVTWRTATLCPQSCEERNLRENGYECEWRYNSCAPACQVTCQHPEPLACPVQCVEGCHAHCPPGKILDELLQTCVDPEDCPVCEVAGRRFASGKKVTLNPSDPEHCQICHCDVVNLTCEACQEPGGLVVPPTDAPVSPTTLYVEDISEPPLHDFHHHHHHHH
6 | 3.12 pM | 0.000118 s⁻¹ | 3.78e+07 M⁻¹ s⁻¹ | Hu-vWF[764-1270]-8His S764D/S766Y (other) DLYCRPPMVKLVCPADNLRAEGLECTKTCQNYDLECMSMGCVSGCLCPPGMVRHENRCVALERCPCFHQGKEYAPGETVKIGCNTCVCRDRKWNCTDHVCDATCSTIGMAHYLTFDGLKYLFPGECQYVLVQDYCGSNPGTFRILVGNKGCSHPSVKCKKRVTILVEGGEIELFDGEVNVKRPMKDETHFEVVESGRYIILLLGKALSVVWDRHLSISVVLKQTYQEKVCGLCGNFDGIQNNDLTSSNLQVEEDPVDFGNSWKVSSQCADTRKVPLDSSPATCHNNIMKQTMVDSSCRILTSDVFQDCNKLVDPEPYLDVCIYDTCSCESIGDCACFCDTIAAYAHVCAQHGKVVTWRTATLCPQSCEERNLRENGYECEWRYNSCAPACQVTCQHPEPLACPVQCVEGCHAHCPPGKILDELLQTCVDPEDCPVCEVAGRRFASGKKVTLNPSDPEHCQICHCDVVNLTCEACQEPGGLVVPPTDAPVSPTTLYVEDISEPPLHDFHHHHHHHH
7 | 12.2 pM | 9.36e-05 s⁻¹ | 7.68e+06 M⁻¹ s⁻¹ | Hu-vWF[764-1270]-8His S764F/S766Y (other) FLYCRPPMVKLVCPADNLRAEGLECTKTCQNYDLECMSMGCVSGCLCPPGMVRHENRCVALERCPCFHQGKEYAPGETVKIGCNTCVCRDRKWNCTDHVCDATCSTIGMAHYLTFDGLKYLFPGECQYVLVQDYCGSNPGTFRILVGNKGCSHPSVKCKKRVTILVEGGEIELFDGEVNVKRPMKDETHFEVVESGRYIILLLGKALSVVWDRHLSISVVLKQTYQEKVCGLCGNFDGIQNNDLTSSNLQVEEDPVDFGNSWKVSSQCADTRKVPLDSSPATCHNNIMKQTMVDSSCRILTSDVFQDCNKLVDPEPYLDVCIYDTCSCESIGDCACFCDTIAAYAHVCAQHGKVVTWRTATLCPQSCEERNLRENGYECEWRYNSCAPACQVTCQHPEPLACPVQCVEGCHAHCPPGKILDELLQTCVDPEDCPVCEVAGRRFASGKKVTLNPSDPEHCQICHCDVVNLTCEACQEPGGLVVPPTDAPVSPTTLYVEDISEPPLHDFHHHHHHHH
